{"source": "paper PMC7764042", "binders": {"B1": {"name": "recombinant human S100B, P04271 1-92 (natural protein)", "chain": "MSELEKAMVALIDVFHQYSGREGDKHKLKKSELKELINNELSHFLEEIKEQEVVDKVMETLDNDGDGECDFQEFMAFVAMVTTACHEFFEHE"}}, "biological_target": "recombinant human interferon beta-1a (human), P01574", "experiment": "SPR; IFN-β immobilised on ProteOn GLH chip by amine coupling; Ca^2+-loaded S100 as analyte (0.25–5 µM S100A1, 0.5–5 µM S100A4/A6, 5 µM other S100); 25 °C; 10 mM HEPES, 150 mM NaCl, 0.01% TWEEN 20, pH 7.4, 1 mM CaCl2; heterogeneous ligand model", "conditions": "remark: other sources report otherwise"}
{"binder": "B1", "values": [{"measurement": "Kd", "result": "> 10", "unit": "µM"}]}
